Assay results taken from article PMC3973348, “Structural integrity of the PCI domain of eIF3a/TIF32 is required for mRNA recruitment to the 43S pre-initiation complexes” (Nucleic Acids Research, 2014).

Target: T1, eIF3c/NIP1 (S. cerevisiae, UniProt P32497 1-812)
T1 construct: eIF3c/NIP1 subunit of yeast eIF3; 50 ug = 0.5 nmol (about 100 kDa) fits a whole protein (surmise); source: purified
Assay: ITC; VP-ITC; 100 uM a/TIF32^276-494 injected in 20 ul aliquots into the cell with 10 uM c/NIP1; 150 mM KCl, 10 mM Hepes pH 7.5, 5% glycerol
Settings: both partners purified

T1 sequence (P32497 whole entry): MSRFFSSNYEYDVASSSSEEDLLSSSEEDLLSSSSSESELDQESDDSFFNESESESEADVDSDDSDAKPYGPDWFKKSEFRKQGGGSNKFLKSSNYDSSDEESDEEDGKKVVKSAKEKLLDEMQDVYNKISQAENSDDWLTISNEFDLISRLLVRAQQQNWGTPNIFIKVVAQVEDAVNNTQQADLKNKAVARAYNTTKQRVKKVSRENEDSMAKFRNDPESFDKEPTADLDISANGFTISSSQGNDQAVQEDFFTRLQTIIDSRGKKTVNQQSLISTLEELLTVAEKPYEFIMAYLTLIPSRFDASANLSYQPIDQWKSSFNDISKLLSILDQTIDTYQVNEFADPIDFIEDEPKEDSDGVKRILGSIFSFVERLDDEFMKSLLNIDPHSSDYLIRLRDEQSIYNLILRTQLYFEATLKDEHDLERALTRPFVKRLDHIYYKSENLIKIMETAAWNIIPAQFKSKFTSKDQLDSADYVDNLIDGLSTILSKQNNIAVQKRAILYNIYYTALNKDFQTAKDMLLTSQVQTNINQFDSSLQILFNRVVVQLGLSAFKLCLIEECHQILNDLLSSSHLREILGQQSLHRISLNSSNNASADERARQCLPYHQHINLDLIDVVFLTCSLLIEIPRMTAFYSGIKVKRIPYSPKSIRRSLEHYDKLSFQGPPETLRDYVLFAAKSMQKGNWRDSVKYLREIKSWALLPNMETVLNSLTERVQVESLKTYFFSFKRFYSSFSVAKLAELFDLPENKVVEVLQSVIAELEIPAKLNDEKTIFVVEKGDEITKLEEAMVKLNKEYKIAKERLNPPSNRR

Kd: 158 nM | dH: -10.2 kcal/mol | stoichiometry N: 0.944
B1: a/TIF32^276-494 (PCI domain of eIF3a/TIF32) (domain or fragment, S. cerevisiae, UniProt P38249 276-494, looked up)
chain: PSTLANYYENLVKVFFVSGDPLLHTTAWKKFYKLYSTNPRATEEEFKTYSSTIFLSAISTQLDEIPSIGYDPHLRMYRLLNLDAKPTRKEMLQSIIEDESIYGKVDEELKELYDIIEVNFDVDTVKQQLENLLVKLSSKTYFSQYIAPLRDVIMRRVFVAASQKFTTVSQSELYKLATLPAPLDLSAWDIEKSLLQAAVEDYVSITIDHESAKVTFAKD
notes: Detailed purification scheme is in Supplementary Methods; also called a/TIF32-PCI; a/TIF32 PCI domain
